Target: VEGF
Assay: cell-based or functional assay

Substance: Murine Flt1(1-3) soluble ectodomain with C-terminal 6xHis tag (adenovirus-expressed) (from UniProt P35969 23-328) (receptor)
- inhibition of VEGF-induced HUVEC proliferation in vitro, IC50: 0.005 µg/mL

Substance: Murine Flk1-Fc (murine Flk1 ectodomain fused to murine IgG2a Fc fragment, adenovirus-expressed) (from UniProt P35918 20-762) (Fc fusion)
- inhibition of VEGF-induced HUVEC proliferation in vitro, IC50: 0.1 µg/mL

From US20060014669A1
